Measured values taken from article doi:10.1101/2024.12.30.630799.

Biological target: BE-eRNP adenine base editor: bipartite NLS, TadA (ABE8.20-m variant), 32-amino acid glycine/serine-rich linker, S. pyogenes nCas9 (D10A, C80A), bipartite NLS, complexed with sgRNA (Escherichia coli | Streptococcus pyogenes)
Experiment: not stated; oligomeric state of the purified eRNPs (protein combined with sgRNA); the method stands only in Supp Figures 1-3

stoichiometry N: 2
Substance: BE-eRNP adenine base editor: bipartite NLS, TadA (ABE8.20-m variant), 32-amino acid glycine/serine-rich linker, S. pyogenes nCas9 (D10A, C80A), bipartite NLS, complexed with sgRNA (enzyme)
